Experimental data: FireProtDB (doi:10.1529/biophysj.106.101162)
Values joined by “and” are separate entries in the source; they are usually repeats but may differ in a detail not shown here. Identical values can stand only once.

Details: Thermus thermophilus, 20 °C, GdnHCl, CD, Sodium acetate 50 mM, reversible: Yes, whole UniProt chain shown

B1: Cytochrome c oxidase subunit 2 wild type, P98052 (protein)
chain: AYTLATHTAGVIPAGKLERVDPTTVRQEGPWADPAQAVVQTGPNQYTVYVLAFAFGYQPNPIEVPQGAEIVFKITSPDVIHGFHVEGTNINVEVLPGEVSTVRYTFKRPGEYRIICNQYCGLGHQNMFGTIVVKE
- unfolding free energy (pH 3.5): 11.9 kJ/mol and 9.2 kJ/mol
- unfolding free energy (pH 4): 13.2 kJ/mol and 10.9 kJ/mol
- unfolding free energy (pH 4.5): 14.9 kJ/mol and 11.9 kJ/mol and 11.4 kJ/mol
- unfolding free energy (pH 5): 26.7 kJ/mol and 28 kJ/mol and 17.4 kJ/mol
- unfolding free energy (pH 5.5): 37.7 kJ/mol
- unfolding free energy (pH 6): 66.6 kJ/mol and 55 kJ/mol and 25 kJ/mol
- unfolding free energy (pH 7): 84.6 kJ/mol and 64.4 kJ/mol
